Results published in paper PMC12011707.

What follows are binders tested against human extracellular domain of FGFR2b fused with the Fc domain of IgG1 (human) (assay: BLI; Octet K2; FGFR extracellular domain-Fc immobilised on a protein A biosensor; FGF10 variants in PBS, 31.25 to 250 nM (told for FGFR2b-Fc); association and dissociation 300 s each; KD from fitted saturation binding curves).

Kd | Binder
0.764 µM | wildtype FGF10 (38-208) (ligand) QALGQDMVSPEATNSSSSSFSSPSSAGRHVRSYNHLQGDVRWRKLFSFTKYFLKIEKNGKVSGTKKENCPYSILEITSVEIGVVAVKAINSNYYLAMNKKGKLYGSKEFNNDCKLKERIEENGYNTYASFNWQHNGRQMYVALNGKGAPRRGQKTRRKNTSAHFLPMVVHS
0.996 µM | FGF10-STAB2 (ligand) QALGQDMVSPEATNSSSSSFSSPSSAGRHVRSYNHLQGDVRIRKLFSFTGYFLKIEPNGKVSGTKKENCPYSILEITSVEIGVVAVKAINSGYYLAMNKKGKLYGSKEFNNDCKLKERIEENGYNTYASFNWRHNGRQMYVALNGKGAPVRGQKTRRKNTSAHFLPMVVHS
0.913 µM | FGF10-STAB3 (ligand) QALGQDMVSPEATNSSSSSFSSPSSAGRHVRSYNHLQGDVRIRKLFSFTGYFLKIEPNGKVSGTKKENCPYSILEITSVEIGVVAVKAINSGYYLAMNKKGKLYGSKEFNNDCKLKERIEENGYNTYASFNWRHNGRQMYVALNGKGAPERGQKTRRKNTSAHFLPMVVHS
